Measured values: PMC7784689, “Structural mechanism of phospholipids translocation by MlaFEDB complex” (Cell Research, 2020)

Substrate: Nc1ncnc2c1ncn2[C@@H]1O[C@H](COP(=O)(O)OP(=O)(O)OP(=O)(O)O)[C@@H](O)[C@H]1O
Assay: purified protein
Format: biochemical, Escherichia coli
Settings: nanodisc-embedded complex (POPG), 0-4 mM ATP, 37 °C, 30 min

B1: MlaFEDB (Escherichia coli K-12) (protein)
chain: MEQSVANLVDMRDVSFTRGNRCIFDNISLTVPRGKITAIMGPSGIGKTTLLRLIGGQIAPDHGEILFDGENIPAMSRSRLYTVRKRMSMLFQSGALFTDMNVFDNVAYPLREHTQLPAPLLHSTVMMKLEAVGLRGAAKLMPSELSGGMARRAALARAIALEPDLIMFDEPFVGQDPITMGVLVKLISELNSALGVTCVVVSHDVPEVLSIADHAWILADKKIVAHGSAQALQANPDPRVRQFLDGIADGPVPFRYPAGDYHADLLPGS
notes: mlaFEDCB operon in pET20b, C-terminal His-tag on MlaB; host E. coli C43(DE3); purified in DDM, reconstituted in MSP1D1/POPG nanodisc; MlaC only in traces (by MS); with Intermembrane phospholipid transport system permease protein MlaE
Km: 90 ± 20 µM
